Test results from patent US20240139371A1, “NEW ANTIMICROBIAL AND ANTITHROMBOGENIC MEDICAL DEVICE” (UNIVERSITÉ DE LIÈGE, priority 2021, published 2024).

Tested on: human platelets
Assay: Platelet adhesion assay (pNPP test)
Format: cell-based
Details: human citrated PRP 45 min at 37° C.; PU = Carbothane PC3585A; PPG 468 and 728; fibrinogen-coated wells positive control; FIG. 10
Procedure: • Blood collection tubes: sodium citrate Vacutainer tubes (3.2% citrate, BD Biosciences) • Non-binding 24-well and 96-well plates for suspension culture (polystyrene, Greiner Bio-One) • Spectrophotometer Spectra max PLUS 384 (Molecular Devices) • Human Fibrinogen ref 341576 (Calbiochem) • 2×pNPP buffer (0.1M citrate buffer pH5.4, 10 mM p-nitrophenylphosphate, 2% Triton X-100)
Platelet adhesion on surfaces is analysed by using the p-NitroPhenil Phosphate (pNPP) test. Values obtained with this test are directly proportional to the number of platelets adhering to the surface. The pNPP test measures the levels of alkaline and acid phosphatases released upon platelet lysis. The hydrolysis of pNPP, a substrate of these phosphatases, produces p-nitrophenol, which has a maximal absorbance at 405 nm and is proportional to the amount of platelets bound to the surface. • 1. […] 100 μl is transferred in a 96-well plate before measuring the absorbance at 405 nm in a spectrophotometer. • 10. Background readings from the PPP incubation is subtracted from the PRP reads. • 11. Numbers of platelets are determined from a calibration curve performed with increasing platelet densities. e. […]
Platelet adhesion was analysed by using the p-NitroPhenil Phosphate (pNPP) assay as described in the protocol of testing of example 10 at point b

fibrinogen
human platelet adhesion: adhesion was observed
